Data from patent publication US20250154231A1.
Read-outs that look alike come from different tables or passages of the source.

How the values were obtained:
Assay in all cases: cell-based or functional assay
[1] = target: SARS-CoV-2 spike (S) protein, Omicron BA.2.75 (SARS-CoV-2) (UniProt P0DTC2)
[2] = target: SARS-CoV-2 spike (S) protein, Omicron BA.1 (SARS-CoV-2) (UniProt P0DTC2)
[3] = target: SARS-CoV-2 spike (S) protein, Victoria strain (SARS-CoV-2) (UniProt P0DTC2)
[4] = target: SARS-CoV-2 spike (S) protein, Omicron BA.1.1 (SARS-CoV-2) (UniProt P0DTC2)
[5] = target: SARS-CoV-2 spike (S) protein, Omicron BA.2 (SARS-CoV-2) (UniProt P0DTC2)
[6] = target: SARS-CoV-2 spike (S) protein, Omicron BA.4/5 (SARS-CoV-2) (UniProt P0DTC2)
[7] = target: SARS-CoV-2 spike (S) protein, Omicron BA.3 (SARS-CoV-2) (UniProt P0DTC2)
[8] = target: SARS-CoV-2 spike (S) protein, Omicron BA.1 (SARS-CoV-2) (UniProt P0DTC2); remark: listed apart in the source
[9] = target: SARS-CoV-2 spike (S) protein, Omicron BA.4.6 (SARS-CoV-2) (UniProt P0DTC2)
[10] = target: SARS-CoV-2 spike (S) protein, Victoria strain (SARS-CoV-2) (UniProt P0DTC2); remark: listed apart in the source
[11] = target: SARS-CoV-2 spike (S) protein, Omicron BA.1.1 (SARS-CoV-2) (UniProt P0DTC2); remark: listed apart in the source
[12] = target: SARS-CoV-2 spike (S) protein, Omicron BA.2 (SARS-CoV-2) (UniProt P0DTC2); remark: listed apart in the source
[13] = target: SARS-CoV-2 spike (S) protein, Omicron BA.4/5 (SARS-CoV-2) (UniProt P0DTC2); remark: listed apart in the source
[14] = target: SARS-CoV-2 spike (S) protein, Omicron BA.3 (SARS-CoV-2) (UniProt P0DTC2); remark: listed apart in the source
[15] = target: SARS-CoV-2 spike (S) protein, Omicron BA.2.75 (SARS-CoV-2) (UniProt P0DTC2); remark: listed apart in the source
[16] = target: SARS-CoV-2 spike (S) protein, Omicron BJ.1 (SARS-CoV-2) (UniProt P0DTC2)
[17] = target: SARS-CoV-2 spike (S) protein, Omicron BA.2.75.2 (SARS-CoV-2) (UniProt P0DTC2)
[18] = target: SARS-CoV-2 spike (S) protein, Omicron BA.4.6 (SARS-CoV-2) (UniProt P0DTC2); remark: listed apart in the source
[19] = target: SARS-CoV-2 spike (S) protein, Victoria strain (SARS-CoV-2) (UniProt P0DTC2); remark: listed apart in the source
[20] = target: SARS-CoV-2 spike (S) protein, Omicron BA.2 (SARS-CoV-2) (UniProt P0DTC2); remark: listed apart in the source
[21] = target: SARS-CoV-2 spike (S) protein, Omicron BA.2.3.20 (SARS-CoV-2) (UniProt P0DTC2)
[22] = target: SARS-CoV-2 spike (S) protein, Omicron BA.4/5 (SARS-CoV-2) (UniProt P0DTC2); remark: listed apart in the source
[23] = target: SARS-CoV-2 Alpha spike (S) protein (SARS-CoV-2) (UniProt P0DTC2)
[24] = target: SARS-CoV-2 Omicron BA.2 spike (S) protein (SARS-CoV-2) (UniProt P0DTC2)
[25] = target: SARS-CoV-2 Omicron BA.1.1 spike (S) protein (SARS-CoV-2) (UniProt P0DTC2)
[26] = target: SARS-CoV-2 Delta spike (S) protein (SARS-CoV-2) (UniProt P0DTC2)
[27] = target: SARS-CoV-2 Omicron BA.1 spike (S) protein of the live isolate (SARS-CoV-2) (UniProt P0DTC2)
[28] = target: SARS-CoV-2 Beta spike (S) protein (SARS-CoV-2) (UniProt P0DTC2)
[29] = target: SARS-CoV-2 Gamma spike (S) protein (SARS-CoV-2) (UniProt P0DTC2)
[30] = target: SARS-CoV-2 Victoria spike (S) protein (SARS-CoV-2) (UniProt P0DTC2)

## Ly-CoV1404 (antibody)
[1]
  pseudovirus neutralisation IC50: 0.002 µg/mL
[2]
  pseudovirus neutralisation IC50: 0.002 µg/mL
[3]
  pseudovirus neutralisation IC50: 0.001 µg/mL
[4]
  pseudovirus neutralisation IC50: 0.001 µg/mL
[5]
  pseudovirus neutralisation IC50: 0.001 µg/mL
[6]
  pseudovirus neutralisation IC50: 0.002 µg/mL
[7]
  pseudovirus neutralisation IC50: 0.002 µg/mL
[8]
  IC50, pseudoviral neutralization: 0.002 µg/mL
[9]
  IC50, pseudoviral neutralization: 0.001 µg/mL
[10]
  IC50, pseudoviral neutralization: 0.001 µg/mL
[11]
  IC50, pseudoviral neutralization: 0.001 µg/mL
[12]
  IC50, pseudoviral neutralization: 0.001 µg/mL
[13]
  IC50, pseudoviral neutralization: 0.002 µg/mL
[14]
  IC50, pseudoviral neutralization: 0.002 µg/mL

## S309 (antibody)
[1]
  pseudovirus neutralisation IC50: 0.202 µg/mL
[2]
  pseudovirus neutralisation IC50: 0.113 µg/mL
[3]
  pseudovirus neutralisation IC50: 0.079 µg/mL
[4]
  pseudovirus neutralisation IC50: 0.142 µg/mL
[6]
  pseudovirus neutralisation IC50: 0.689 µg/mL
[7]
  pseudovirus neutralisation IC50: 0.311 µg/mL
[15]
  IC50, pseudoviral neutralization: 0.202 µg/mL
[16]
  IC50, pseudoviral neutralization: 0.431 µg/mL
[17]
  IC50, pseudoviral neutralization: 0.465 µg/mL
[18]
  IC50, pseudoviral neutralization: 1.03 µg/mL
[19]
  IC50, pseudoviral neutralization: 0.079 µg/mL
[20]
  IC50, pseudoviral neutralization: 0.638 µg/mL
[21]
  IC50, pseudoviral neutralization: 0.977 µg/mL
[22]
  IC50, pseudoviral neutralization: 0.689 µg/mL
[23]
  IC50, authentic virus neutralization: 0.078 µg/mL
[8]
  IC50, pseudoviral neutralization: 0.113 µg/mL
  pseudovirus neutralisation IC50: 0.094 µg/mL
[24]
  IC50, authentic virus neutralization: 5.04 µg/mL
[9]
  IC50, pseudoviral neutralization: 1.03 µg/mL
[25]
  IC50, authentic virus neutralization: 1.12 µg/mL
[26]
  IC50, authentic virus neutralization: 0.113 µg/mL
[10]
  IC50, pseudoviral neutralization: 0.079 µg/mL
  pseudovirus neutralisation IC50: 0.13 µg/mL
[11]
  IC50, pseudoviral neutralization: 0.142 µg/mL
  pseudovirus neutralisation IC50: 0.138 µg/mL
[12]
  IC50, pseudoviral neutralization: 0.638 µg/mL
  pseudovirus neutralisation IC50: 0.638 µg/mL
[27]
  IC50, authentic virus neutralization: 0.256 µg/mL
[13]
  IC50, pseudoviral neutralization: 0.689 µg/mL
  pseudovirus neutralisation IC50: 1.04 µg/mL
[28]
  IC50, authentic virus neutralization: 0.082 µg/mL
[29]
  IC50, authentic virus neutralization: 0.076 µg/mL
[14]
  IC50, pseudoviral neutralization: 0.311 µg/mL
  pseudovirus neutralisation IC50: 0.228 µg/mL
[30]
  IC50, authentic virus neutralization: 0.04 µg/mL
